Tests used:
T lymphocyte = T lymphocyte transformation test (ConA-stimulated spleen cells of treated mice, MTT); type: in vivo, BALB/c mice; details: healthy mice, saline 1.3 ± 0.1
Procedure, shortened: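 Mice (10/group) received substances i.p. in 0.5 ml saline daily for 15 days; next day splenocytes (1×10^6/ml) were cultured 66 h at 37 °C with or without ConA (100 μg/ml stock added). MTT was added for 4 h and OD570 (ref 630 nm) read; stimulation index = mean ConA OD / mean control OD per mouse.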

IL-2 = assay: T lymphocyte IL-2 secretion test (HT-2 cell bioassay of ConA supernatant); type: in vivo, BALB/c mice; details: healthy mice
Experimental: Spleen cells of density 1×10^6/ml were placed onto a 96 wells cell culture plate, 100 μL/well, three parallel wells each of the assay sample and control sample per mouse. To the assay wells, 100 μl/well ConA of 100 μg/ml in RPMI-1640 was added, and […] plain RPMI-1640 was used for the controls. The cells were incubated for 66 hrs at 37° C., 5% CO2. The cells were then pelleted by centrifugation at 150 g for 10 minutes.
HT-2 cells at log phase were collected by centrifugation at 150 g for 10 minutes, and washed three times with cold Hank's solution by re-suspension and centrifugation. The collected HT-2 cells were re-suspended in RPMI-1640 and incubated at 37° C., 5% CO2 for 30 minutes. The cells were further washed twice with RPMI-1640 by re-suspension and centrifugation, and re-suspended to final concentration of 2×10^5/ml with RPMI-1640.
rIL-2 was diluted to the following concentration with RPMI-1640: 500 IU/ml, 250 IU/ml, 125 IU/ml, 62.5 IU/ml, 31.25 IU/ml, and […].
The plate was incubated at 37° C., 5% CO2 for 68 hours, then centrifuged at 150 g for 15 minutes and the supernatant removed. 100 μl 0.5 mg/ml MTT in RPMI-1640 without phenolsulfonphthalein was added into each well. After shaking for 3-4 minutes to re-suspend the cells, continue to incubate for another 4 hours. Samples were then centrifuged at 150 g for 15 minutes and the supernatant was removed. To each well, 120 μl 40 mM HCl-2-propanol was added, mixed for 3-4 minutes and OD analyzed at 570 nm, referenced at 630 nm with an ELISA plate reader.
The average OD of the three parallel wells of each dilution was taken and plotted against concentration on a semi-log paper, concentration on the X-axis. The concentration at 50% OD saturation was obtained for both the testing supernatant and rIL-2.

[1] = test system: Sheep red blood cells (SRBC); assay: Humoral immunity (SRBC hemolysis index) of mice bearing transplanted B16 melanoma; type: in vivo, C57BL/6 mice; parameters: key: index = (OD540 sample ÷ reference OD540) × 500; details: controls: rhIL-2, rmIFN-γ 3 × 10^5 IU/kg, cyclophosphamide 20 mg/kg, saline 19.0 ± 9.1
Experimental: Intraperitoneal injection, once per day. […] Treatment of all groups with testing substance lasted for 30 days or until the animal died unless otherwise specified.
Stock B16 mouse melanoma cells were incubated in DMEM/F12 medium supplemented with 10% fetal bovine serum, 37° C./5% CO2 for 72 hrs, then washed 3-4 times with Hank's solution. The cell concentration was adjusted to 1×10^5 per ml with Hank's solution and 0.1 ml of the cell suspension was injected via the tail vein into the testing mice to generate the B16 melanoma bearing animal model. Treatment with test substance started as described in section Method 1.
Sheep red blood cells (SRBC) were prepared by collecting blood from the cervical vein and put into a sterile flask with glass beads. The flask was shaken for 3 minutes and the blood then mixed with Alsever solution (glucose 2.05 g, NaCl 0.4 g, […] 0.8 g, adjust to 100 ml with distilled water) and stored at 4° C. Immediately before use, samples were centrifuged at 130 g, 5 minutes to collect the SRBC. The cells were washed two times by re-suspension and centrifugation in normal saline. Then the cell pellet was collected by centrifugation at 180 g for 10 minutes and re-suspended in saline to make the final working SRBC suspension, 2% (v/v).
Complement was prepared by adding 10 volumes of fresh Cavy serum into one volume centrifuge packed SRBC, and then gently shaken for 30 minutes at 4° C. The SRBC was removed by centrifugation at 200 g for 10 minutes. 10 volumes of normal saline were added to obtain the working complement solution.
On the testing animals, on the 27th date of test substance treatment, 0.2 ml of the working SRBC cell suspension was injected into each animal to raise antibody. On the day after the last test substance administration, blood was collected from the eye canthus and left at room temperature for one hour for serum exudation. After centrifugation at 200 g for 10 minutes, the collected serum was diluted by 500 times with normal saline.
To 1 ml diluted mouse serum of each mouse, 0.5 ml SRBC suspension was added. Ice cold. Then 1 ml working complement solution was added and incubated at 37° C. water bath for 10 minutes. Reactions were terminated by ice cold. Samples were then centrifuged at 200 g for 10 minutes to obtain the supernatant.
To 1 ml of this supernatant, 3 ml Drabkin solution was added and left at room temperature for 10 minutes. OD540 nm was obtained.
Reference OD540 nm was obtained by mixing 0.25 ml SRBC suspension with Drabkin solution to 4 ml and placed at room temperature for 10 minutes before OD540 nm was taken. Hemolysis index=(OD540 nm of test sample÷reference OD540 nm)×500 6.2 After the Humoral Immunity Study, the Mice were Killed by Cervical Vertebra Dislocation. Postmortem Examination of the Animals was Performed. The Pathological Changes were Recorded, and the Numbers of Melanoma Lung Metastasis Foci Were Counted. Results

B1: IFN-γ: recombinant mouse IFN-γ (rmIFN-γ), Beijing Biotech Inc.; positive control (protein, UniProt P01580 23-155, looked up)
Interferon gamma: HGTVIESLESLNNYFNSSGIDVEEKSLFLDIWRNWQKDGDMKILQSQIISFYLRLFEVLKDNQAISNNISVIESHLITTFFSNSKAKKDAFMSIAKFEVNNPQVQRQAFNELIRVVHQLLPESSLRKRKRSRC
X ± SD (stimulation index) (T lymphocyte; peptide 0.5 μg/kg/day i.p. 15 days (IFN-γ, IL-2 3×10^5 IU/kg/day)): 1.6 ± 0.2
X ± SD (stimulation index) (T lymphocyte; peptide 5 μg/kg/day i.p. 15 days (IFN-γ, IL-2 3×10^5 IU/kg/day)): 1.6 ± 0.2
X ± SD (stimulation index) (T lymphocyte; peptide 50 μg/kg/day i.p. 15 days (IFN-γ, IL-2 3×10^5 IU/kg/day)): 1.7 ± 0.2
X ± SD (stimulation index) (T lymphocyte; peptide 500 μg/kg/day i.p. 15 days (IFN-γ, IL-2 3×10^5 IU/kg/day)): 1.6 ± 0.2
activity of T lymphocyte in secreting IL-2, X ± SD (IU) (IL-2; peptide 5 μg/kg/day i.p. 15 days (IFN-γ, IL-2 3×10^5 IU/kg/day), saline 37 ± 9): 96 ± 14 IU
activity of T lymphocyte in secreting IL-2, X ± SD (IU) (IL-2; peptide 50 μg/kg/day i.p. 15 days (IFN-γ, IL-2 3×10^5 IU/kg/day), saline 39 ± 10): 99 ± 16 IU
activity of T lymphocyte in secreting IL-2, X ± SD (IU) (IL-2; peptide 500 μg/kg/day i.p. 15 days (IFN-γ, IL-2 3×10^5 IU/kg/day), saline 39 ± 10): 100 ± 18 IU
activity of T lymphocyte in secreting IL-2, X ± SD (IU) (IL-2; peptide 0.51 g/kg/day (so in the source) i.p. 15 days (IFN-γ, IL-2 3×10^5 IU/kg/day), saline 38 ± 13): 87 ± 15 IU
Hemolysis index [1]: 60.5 ± 17.4

Source: US20060167229A1, “Biologically active peptide conjugates” (priority 2002, published 2006)
